These results are taken from US20260176346A1.

The experiment deals with recombinant human VEGF (R&D Systems, 293-VE-010) (human) (UniProt P15692). Kind of experiment: Octet HTX biosensor (BLI); positive control antibody at 10 ug/mL in 1x kinetics buffer; recombinant human VEGF in 1:2 series, 200 nM to 3.125 nM.
UniProt P15692, sequence (P15692 other isoform, or with tags, fused parts or gaps limits assumed): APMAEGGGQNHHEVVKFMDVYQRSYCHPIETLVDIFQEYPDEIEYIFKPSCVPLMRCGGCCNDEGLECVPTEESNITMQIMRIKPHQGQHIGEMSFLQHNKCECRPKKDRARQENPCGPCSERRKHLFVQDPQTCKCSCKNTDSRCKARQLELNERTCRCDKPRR

By Kd is commonly meant the equilibrium constant for the complex coming apart. One may read the koff as the rate constant with which the complex falls apart. As a reminder, the kon is the rate constant with which the complex forms. Regarding “mouse anti-human VEGF monoclonal antibody (anti-hVEGF MmAb; R&D Systems, MAB293-100)”, the Kd came out at 0.229 nM, the koff amounted to 7.77e-05 s⁻¹ and the kon was 340000 M⁻¹ s⁻¹.
